Consider 125 sequences from the supplement of paper PMC9112550, “Optimization of the antimicrobial peptide Bac7 by deep mutational scanning” (BMC Biology, 2022).

In the series the test system is Escherichia coli TOP10. Briefly: shrunken log2 fold change of peptide-encoding DNA abundance (4.5 h post-induction vs induction); higher = less antimicrobial activity (less host growth inhibition). The following applies: time post-induction: 4.5 h; library: site-saturation at positions 5, 18, 19, 20.
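Also: peptides expressed intracellularly from a pBAD plasmid library in pooled LB shake-flask culture, induced with 0.3% L-arabinose, DNA abundance read by NGS, three biological replicates, DESeq2 with apeglm shrinkage.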

As to RRIRERPPRLPRPRPRPNQNPRP, the “shrunken log2 fold change” value is -0.188.

In the case of RRIRFRPPRLPRPRPRPRFWPRP, the “shrunken log2 fold change” value is 0.317.

Turning to RRIRCRPPRLPRPRPRPNNFPRP, the “shrunken log2 fold change” value was -0.493.

Consider RRIRPRPPRLPRPRPRPHNWPRP, for which the “shrunken log2 fold change” value turned out to be 0.0255.

As to RRIRNRPPRLPRPRPRPLPVPRP, the “shrunken log2 fold change” value stood at 0.437.

On to RRIRTRPPRLPRPRPRPSKHPRP, for which the “shrunken log2 fold change” value is -0.351.

Regarding RRIRKRPPRLPRPRPRPNASPRP, the “shrunken log2 fold change” value amounted to 0.236.

Take RRIRTRPPRLPRPRPRPVTDPRP: the “shrunken log2 fold change” value worked out at 0.0266.

Regarding RRIRMRPPRLPRPRPRPFGIPRP, the “shrunken log2 fold change” value is 0.0278.

For RRIRMRPPRLPRPRPRPVMYPRP, the “shrunken log2 fold change” value was -0.0366.

As to RRIRDRPPRLPRPRPRPAVPPRP, the “shrunken log2 fold change” value is -0.00426.

Consider RRIRPRPPRLPRPRPRPTHRPRP, for which the “shrunken log2 fold change” value was found to be 0.223.

Regarding RRIRDRPPRLPRPRPRPMYYPRP, the “shrunken log2 fold change” value is -0.535.

Regarding RRIRQRPPRLPRPRPRPPSIPRP, the “shrunken log2 fold change” value is -0.0422.

Turning to RRIRLRPPRLPRPRPRPTYSPRP, the “shrunken log2 fold change” value is -0.572.

Take RRIRLRPPRLPRPRPRPLQWPRP: the “shrunken log2 fold change” value was 0.126.

In the case of RRIRQRPPRLPRPRPRPVLVPRP, the “shrunken log2 fold change” value was found to be 0.328.

As to RRIRHRPPRLPRPRPRPPRTPRP, the “shrunken log2 fold change” value worked out at 1.03.

With RRIRARPPRLPRPRPRPMCIPRP, the “shrunken log2 fold change” value was found to be 0.143.

Regarding RRIRSRPPRLPRPRPRPDDYPRP, the “shrunken log2 fold change” value turned out to be 0.0211.

For RRIRSRPPRLPRPRPRPLDRPRP, the “shrunken log2 fold change” value was 0.218.

For RRIRVRPPRLPRPRPRPRIYPRP, the “shrunken log2 fold change” value is -0.15.

As to RRIRVRPPRLPRPRPRPDFTPRP, the “shrunken log2 fold change” value is -0.282.

As for RRIRKRPPRLPRPRPRPWMAPRP, the “shrunken log2 fold change” value amounted to 0.102.

Consider RRIRDRPPRLPRPRPRPPMYPRP, for which the “shrunken log2 fold change” value was -0.405.

With RRIRRRPPRLPRPRPRPCWNPRP, the “shrunken log2 fold change” value is -0.00252.

With RRIRHRPPRLPRPRPRPVNTPRP, the “shrunken log2 fold change” value is -0.18.

Regarding RRIRCRPPRLPRPRPRPRWQPRP, the “shrunken log2 fold change” value came out at 0.0261.

Turning to RRIRYRPPRLPRPRPRPCTSPRP, the “shrunken log2 fold change” value was -0.679.

For RRIRKRPPRLPRPRPRPVTIPRP, the “shrunken log2 fold change” value was 0.0361.

For the sequence RRIRERPPRLPRPRPRPFDVPRP, the “shrunken log2 fold change” value was -0.0685.

In the case of RRIRWRPPRLPRPRPRPAPPPRP, the “shrunken log2 fold change” value was 0.579.

Regarding RRIRQRPPRLPRPRPRPHWKPRP, the “shrunken log2 fold change” value was -0.0878.

On to RRIRTRPPRLPRPRPRPFGHPRP, for which the “shrunken log2 fold change” value was -0.145.

Take RRIRYRPPRLPRPRPRPLKVPRP: the “shrunken log2 fold change” value was -0.0432.

In the case of RRIRCRPPRLPRPRPRPAQMPRP, the “shrunken log2 fold change” value turned out to be 0.224.

In the case of RRIRARPPRLPRPRPRPRGVPRP, the “shrunken log2 fold change” value was determined as 0.682.

RRIRQRPPRLPRPRPRPPYAPRP: the “shrunken log2 fold change” value is -0.189.

With RRIRKRPPRLPRPRPRPDEPPRP, the “shrunken log2 fold change” value is 2.05.

Take RRIRFRPPRLPRPRPRPWEDPRP: the “shrunken log2 fold change” value turned out to be 0.0682.

Turning to RRIRSRPPRLPRPRPRPEMEPRP, the “shrunken log2 fold change” value was 0.00902.

In the case of RRIRERPPRLPRPRPRPMGRPRP, the “shrunken log2 fold change” value came to 0.0998.

Consider RRIRDRPPRLPRPRPRPPPPPRP, for which the “shrunken log2 fold change” value turned out to be 0.899.

In the case of RRIRPRPPRLPRPRPRPRFPPRP, the “shrunken log2 fold change” value is 0.233.

For the sequence RRIRVRPPRLPRPRPRPWDSPRP, the “shrunken log2 fold change” value is -0.181.

Turning to RRIRSRPPRLPRPRPRPMTPPRP, the “shrunken log2 fold change” value was found to be 0.13.

In the case of RRIRLRPPRLPRPRPRPEECPRP, the “shrunken log2 fold change” value is 0.00698.

As for RRIRSRPPRLPRPRPRPLCCPRP, the “shrunken log2 fold change” value stood at 0.473.

For RRIRYRPPRLPRPRPRPFSLPRP, the “shrunken log2 fold change” value was -1.22.

As for RRIRQRPPRLPRPRPRPVINPRP, the “shrunken log2 fold change” value was -0.102.

As to RRIRVRPPRLPRPRPRPWNLPRP, the “shrunken log2 fold change” value was -0.14.

RRIRMRPPRLPRPRPRPRPVPRP: the “shrunken log2 fold change” value came out at 1.17.

In the case of RRIRMRPPRLPRPRPRPYWQPRP, the “shrunken log2 fold change” value is -0.312.

Consider RRIRWRPPRLPRPRPRPHFTPRP, for which the “shrunken log2 fold change” value was -0.306.

Consider RRIRHRPPRLPRPRPRPEDPPRP, for which the “shrunken log2 fold change” value was 0.0512.

As for RRIRIRPPRLPRPRPRPDTDPRP, the “shrunken log2 fold change” value was -0.194.

On to RRIRDRPPRLPRPRPRPCRVPRP, for which the “shrunken log2 fold change” value was found to be 0.0479.

RRIRWRPPRLPRPRPRPQNFPRP: the “shrunken log2 fold change” value came to 0.0414.

With RRIRVRPPRLPRPRPRPTSDPRP, the “shrunken log2 fold change” value worked out at 0.431.

Turning to RRIRARPPRLPRPRPRPCGEPRP, the “shrunken log2 fold change” value is -0.00932.

As for RRIRPRPPRLPRPRPRPNNCPRP, the “shrunken log2 fold change” value was -0.0794.

For RRIRSRPPRLPRPRPRPFNTPRP, the “shrunken log2 fold change” value is -0.257.

RRIRDRPPRLPRPRPRPFHSPRP: the “shrunken log2 fold change” value is -0.13.

For RRIRIRPPRLPRPRPRPVVNPRP, the “shrunken log2 fold change” value was -0.356.

With RRIRVRPPRLPRPRPRPRQYPRP, the “shrunken log2 fold change” value is 0.00898.

RRIRTRPPRLPRPRPRPNEQPRP: the “shrunken log2 fold change” value was -0.0135.

As for RRIRFRPPRLPRPRPRPQVQPRP, the “shrunken log2 fold change” value is -0.0485.

For the sequence RRIRDRPPRLPRPRPRPMMRPRP, the “shrunken log2 fold change” value stood at 0.763.

As for RRIRRRPPRLPRPRPRPSFEPRP, the “shrunken log2 fold change” value stood at 0.234.

For RRIRNRPPRLPRPRPRPEKYPRP, the “shrunken log2 fold change” value was -0.805.

Take RRIRDRPPRLPRPRPRPDWFPRP: the “shrunken log2 fold change” value is -0.0209.

On to RRIRRRPPRLPRPRPRPGICPRP, for which the “shrunken log2 fold change” value came out at 0.0771.

RRIRIRPPRLPRPRPRPQVLPRP: the “shrunken log2 fold change” value is -0.338.

Take RRIRQRPPRLPRPRPRPLQIPRP: the “shrunken log2 fold change” value was found to be 0.223.

For RRIRCRPPRLPRPRPRPMIDPRP, the “shrunken log2 fold change” value worked out at 0.0647.

Consider RRIRVRPPRLPRPRPRPQTSPRP, for which the “shrunken log2 fold change” value was -0.0971.

In the case of RRIRGRPPRLPRPRPRPQAPPRP, the “shrunken log2 fold change” value is 0.662.

RRIRKRPPRLPRPRPRPDYTPRP: the “shrunken log2 fold change” value was -0.193.

Regarding RRIRHRPPRLPRPRPRPVGCPRP, the “shrunken log2 fold change” value stood at 0.0698.

As for RRIRFRPPRLPRPRPRPAHHPRP, the “shrunken log2 fold change” value is -0.152.

Consider RRIRPRPPRLPRPRPRPKTDPRP, for which the “shrunken log2 fold change” value is -0.0446.

Regarding RRIRLRPPRLPRPRPRPHFGPRP, the “shrunken log2 fold change” value turned out to be 0.0847.

With RRIRLRPPRLPRPRPRPTVFPRP, the “shrunken log2 fold change” value was 0.156.

RRIRPRPPRLPRPRPRPTNDPRP: the “shrunken log2 fold change” value was -0.00332.

Regarding RRIRLRPPRLPRPRPRPTNMPRP, the “shrunken log2 fold change” value was -0.537.

As for RRIRTRPPRLPRPRPRPTPKPRP, the “shrunken log2 fold change” value came out at 0.283.

As for RRIRPRPPRLPRPRPRPEQTPRP, the “shrunken log2 fold change” value turned out to be 0.0268.

Regarding RRIRHRPPRLPRPRPRPCDEPRP, the “shrunken log2 fold change” value was -0.0443.

RRIRPRPPRLPRPRPRPQEDPRP: the “shrunken log2 fold change” value is -0.0602.

As for RRIRIRPPRLPRPRPRPLFNPRP, the “shrunken log2 fold change” value was -1.02.

In the case of RRIRYRPPRLPRPRPRPHTSPRP, the “shrunken log2 fold change” value is -1.04.

Consider RRIRIRPPRLPRPRPRPAAFPRP, for which the “shrunken log2 fold change” value is -0.234.

As for RRIRNRPPRLPRPRPRPWAQPRP, the “shrunken log2 fold change” value is -0.0776.

In the case of RRIRNRPPRLPRPRPRPRNIPRP, the “shrunken log2 fold change” value was -0.168.

For the sequence RRIRERPPRLPRPRPRPFVRPRP, the “shrunken log2 fold change” value is -0.146.

Take RRIRSRPPRLPRPRPRPHFSPRP: the “shrunken log2 fold change” value is -0.112.

For the sequence RRIRARPPRLPRPRPRPLWMPRP, the “shrunken log2 fold change” value is 0.264.

With RRIRARPPRLPRPRPRPDCRPRP, the “shrunken log2 fold change” value worked out at 0.0473.

Turning to RRIRNRPPRLPRPRPRPGLMPRP, the “shrunken log2 fold change” value amounted to 0.235.

Regarding RRIRTRPPRLPRPRPRPPRFPRP, the “shrunken log2 fold change” value worked out at 0.219.

As for RRIRCRPPRLPRPRPRPVHMPRP, the “shrunken log2 fold change” value is 0.0385.

Turning to RRIRDRPPRLPRPRPRPHRFPRP, the “shrunken log2 fold change” value came out at 0.0062.

As to RRIRNRPPRLPRPRPRPAHNPRP, the “shrunken log2 fold change” value was -0.259.

On to RRIRKRPPRLPRPRPRPPPNPRP, for which the “shrunken log2 fold change” value came out at 0.982.

In the case of RRIRKRPPRLPRPRPRPPLEPRP, the “shrunken log2 fold change” value was determined as 0.456.

Take RRIRIRPPRLPRPRPRPKYVPRP: the “shrunken log2 fold change” value was -0.134.

In the case of RRIRRRPPRLPRPRPRPSHKPRP, the “shrunken log2 fold change” value was -0.0351.

With RRIRGRPPRLPRPRPRPMMPPRP, the “shrunken log2 fold change” value stood at 0.119.

Turning to RRIRFRPPRLPRPRPRPFFEPRP, the “shrunken log2 fold change” value is 0.0992.

For RRIRDRPPRLPRPRPRPVYGPRP, the “shrunken log2 fold change” value is -0.322.

As to RRIRTRPPRLPRPRPRPHHKPRP, the “shrunken log2 fold change” value is -0.614.

RRIRIRPPRLPRPRPRPWTLPRP: the “shrunken log2 fold change” value is -0.0808.

Regarding RRIRVRPPRLPRPRPRPEDAPRP, the “shrunken log2 fold change” value was 0.801.

As for RRIRERPPRLPRPRPRPACLPRP, the “shrunken log2 fold change” value was -0.0938.

On to RRIRVRPPRLPRPRPRPLDQPRP, for which the “shrunken log2 fold change” value turned out to be 0.0826.

For RRIRSRPPRLPRPRPRPMDKPRP, the “shrunken log2 fold change” value came to 0.0107.

Turning to RRIRQRPPRLPRPRPRPWCVPRP, the “shrunken log2 fold change” value is -0.115.

As for RRIRIRPPRLPRPRPRPHVWPRP, the “shrunken log2 fold change” value was -0.287.

With RRIRDRPPRLPRPRPRPICWPRP, the “shrunken log2 fold change” value was found to be 0.318.

Regarding RRIRHRPPRLPRPRPRPITGPRP, the “shrunken log2 fold change” value was determined as 0.015.

As to RRIRTRPPRLPRPRPRPVTNPRP, the “shrunken log2 fold change” value is -0.0277.

For RRIRLRPPRLPRPRPRPSWLPRP, the “shrunken log2 fold change” value is -0.532.

For RRIRQRPPRLPRPRPRPKFQPRP, the “shrunken log2 fold change” value was 0.022.

As to RRIRYRPPRLPRPRPRPLGYPRP, the “shrunken log2 fold change” value was -0.162.

In the case of RRIRTRPPRLPRPRPRPMDVPRP, the “shrunken log2 fold change” value is -0.303.
